Experiment: yeast display, Sf9 membrane polyspecificity reagent, FACS + sequencing; frameworks hold sequencing errors
Method in brief: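 Galactose-induced (36–48 hours) yeast carrying a synthetic nanobody display library were exposed to 10% biotinylated, detergent-solubilized Sf9 membrane reagent at 4 °C for 1 hour. FACS followed streptavidin microbead enrichment, using low and high (top ~1%) gates for expression (anti-HA) and reagent binding (streptavidin). Colony PCR, MiSeq 2 × 250 sequencing and CDR-length filtering followed. Labels for polyreactivity reflect the gate of origin.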

Sequence	polyreactivity (PSR sort gate)
QVQLVESGGGLVQAGGSLRLSCAASGSIFRRYAMGWYRPAPGTERELVAAISYSGGSTYYADSVKGRFTISRDNAKNTVYLQMNSLKPEDTAVYYCAADESRYDYWGQGTQVTVSS	high polyreactivity
QVQLVESGGGLVQAGGSLRLSCAASGSTFNHNAMGWYRQAPGKERELVAAITSGTSTYYADSVKGRFTISRDNAKNTVYLQMNSLKPEDTAVYYCAADSPWGGGYFVLYNYWGQGTQVTVSS	low polyreactivity
QVQLVESGGGLVQAGGRLRISCAASGTIFAYALGWYRPAPGKERELVAGISRRGGSTYYADSVKGRFTISRDNAKKTVYLQMKSLKPEDTAVYYCAADYYTLYPVYIKRYGYWGQGTQVTVSA	high polyreactivity
QVQLVESGGGLVQAGGSLRLSCAASGFTFSTYAMGWYRQAPGKERELVSAISFSGGSTYYADSVKGRFTISRDNAKNTVYLQMNSLKPEDTAVYYCARAYTKYFEIYFIYALLYGHWGQGTQVTVSS	low polyreactivity
QVQLVESGGVLVQAGGSLRLSCAASGSTSDCYDMGWYRQAPGKEWELVAAISTGDGITYYADSVKGRFTISRDNAKNTVYLHMNRLKPEDTAVYYCAAEVELSGGSDYWGQGTQVTVSS	low polyreactivity
QVQLVESVGGLVQAGGSLRLSCAASGFTFSSNAMGWYRQAPGKERELVAAISGTGGSTYYSDSVKVRITISRDNAKNTFYLLMNRLKPDDKAVYYCARVYNFYTSGYDYWGKGTQVTVSS	high polyreactivity
QVQLVESGGGLVQAGGSLRLSCAASGSIFLVYAMGWYRQAPGKERELVAAISRSGRTYADSVKGRFTISRDNAKNTVYLQMNSLKPEDTAVYYCAAGTKRRFEGDYWGQGTQVTVSS	high polyreactivity
QVQLVESGGGLDQAGGSHRLSCAASGFTFYPNAMGWYRQAPGKERELVASINSDGSTNYADSVKGRFTISRDNAKNTVYLPMNSLIPEDTAVYYCAAGYFWGRIKYYYWVQGTQVTVSS	high polyreactivity
QVQLVESGGGLVQAGGSLRLSCAASGSTFDSYAMGWSRQAPGKERELVAAISYSGGSTYYADSVKGRFTISRDNAKNTVYLQMNRLKPEDTAVYYCAASSYNHKRYPSPYDYWGQGTQVTVSS	high polyreactivity
QVQLVESGGGLVQAGGSLRLSCAASGIIFWGYAMGWYRQAPGKERELVAAISRGGSTYYADSVKGRFTISRDNAKNTVYLQMNSLKPEDTAVYYCAATGVRTWALDYWGQGTQVTVSS	high polyreactivity
QVQLVESGGALVQAGGSLLLSCAASGSIFQPYAMGWYRQAPGKERELVAAITNGGSTYYADSVKGRFTISRDNAKNTVYLQMNSLNPEDTAVYYFAADVQSSHVYDYWGQGTQVTVSS	low polyreactivity
QVQLVESGGGLVQAGGSLRLSCAASGYTFTLYAMGWYRQAPGKEREFVAAISIGGDSTYYADSVKGRFTISRDNAKNTVYLQMNSLKPEDTAVYYCAADTYQRWILLIGELQVETSYDYWGQGTQVTVSS	low polyreactivity
QVQLVYSGGGLVQAGGSLRLSCAASGSLFYHNAMGWYRQAAGKEMELDADISWSGGSTYYADSVKGRFTISRDYAKNTVYLQMNSLKPEDTAVYYGNTDARYDEYDEFDYWGQGTQVTVSS	low polyreactivity
QVQLVESGGGLVQAGGSLRLICDASGSIFEDYTMGWYRPGPGKERELVAASSRSGVRKYYADSVKGLFTISRDNAKNTVNLQMNSLKPEDTGVYYCARTRVASKGYDYWGQGTQVTVSS	high polyreactivity
QVQLVESGGGLVHAGGSLRLSCAASGSIFTFYTMGWYRQAPGKERELVAAINWSGSRTYYADSVKGRFTISRDNAKNTVYLQMNSLKPEDTAVYYCAAYYYTGPTTVESDYWGQGTQVTVSS	high polyreactivity
QVQLVESGGGLVQAGGSLRLSCAASGRTFYDNTMGWYRQAPGKERELVAAINWSGTRTYYADSVKGRFTISRDNAKNTVYLQMNSLKPEDTAVYYCAADGPFRRTYGYWGQGTQVTVSS	low polyreactivity
QVQLVESVGGLDQAGGTLRLSCAASALIFAYYAMGGYRQAPGKERELVAAITSSGTSTYYADSVKGRFTISRDNAKNTVYLQMNSLTPEDTAVYYCAASDRRLTGVGADEYWGQGTQVTVSS	high polyreactivity
QDQHVESGGGLVQAGGSLRLSCAASGTIFCYYAMGWYRQAPGKERGLVASISWNGTSTYYADSVKGRFTISRDNSKNTVYLQMNCLNPEDTAVYYCNVRFNYRGTYDYWGQGTQVTVSS	low polyreactivity
QVQLVESGGGLVQAGGSLRLSCAASGITFQRYAMGWYRQAPGKERELVAAISTNGGTTYYADSVKGRFTISRDNAKNTVYLQMNSLKPEDTAVYYCNAESGYVYYIRYNYWGQGTQVTVSS	high polyreactivity
QVQLVESGGGLVQAGGSLRLSCAASGITFYRNARGWYRQAPGNEMELVAAITWNGGRTYYADSVKGRVTISRDNAKNTVDLQMNSLKPEDTAVYDCAADSGTRNLASYRYYYWGQGTLVTVSS	low polyreactivity
QVQLVESGGGLVQAGGSLRLSCAASGIIFRANAMGWYRQAPGKERELVAAISRRGGSTYYADSVKGRFTISRDNAKNTVFLQMNSLKPEDTAVYYCAADGKNYPVGYDYWGQGTQVTVSS	high polyreactivity
QVQLVESGVGLVQAGGSLRLSCASSGILVYNAMAWYRQAPGKERELVAAISARGGRTYYADSVKGRFTISRDNAKNTVYLQMNSLKPEDTAVYYCATLETTGVNYWGQGTQVTVSS	high polyreactivity

Sequence	polyreactivity (PSR sort gate)
QVQLVESGGGLVQAGGSLRLSCAASGFIFLYAMGWYRQAPGKERELVAAISWSDTSTYYADSVKGRFTISRDNAKNTVYLQMNSLKPEDTAVYYCNAETWNYGDYDYWGQGTQVTVSS	high polyreactivity
QVQLVESGGGLVQAGGSLRLSCAASGSTFSTYAMGWYRQAPGKERELVAAIRWSGGSTYYADSVKGRFTISRDNAKNTVYLQMNSLKPEDTAVYYCATDAPDRTDSDSGFDAGYDYWGQGTQVTLSS	low polyreactivity
QVQLVESGGGLVQAGGSLRLSCAASGRTIFYYAMGWYRQAPGKERELVATITKRGGSTYYADSVKGRFTISRDNAKNTVYLQMNSLKPEDTALYYCAARFVGWRGGRAYYYWGQGTQVTVAS	high polyreactivity
QVQLVESGGGLVQAGGSLRLSCAASGSIFAANALGWYRQAPGKERELVAAITSGGGSTYYADSVKGRFTISRDNAKNTVYLQMNSLKPEDTAVYYCAARSLVQDHAYGNNYWGQGTQVTVSS	low polyreactivity
QVQLVESGGGLVQAGGSLRLSCAASGRTFLANAMGWYRQAPGKERELVAAITWSGGRTNYADSVKGRFTISRDNAKNTVYLQMNSLKPEDTAVYYCAADIFYEQVVGGTDVGYHDFDYWGQGTQVTVSS	low polyreactivity
QVQLVESGGGLVQAGGSLRLSCAASGYIFQKNAMGWYRQAPGKERELVAAISSGTDRTYYADSVKGRFTISRDNAKYTVYLQMNSLKPDDTAVYYCAARYWGGYYYWGQGTQVTVSS	high polyreactivity
QVQLVESGGGLVQAGGSIRLICAASGFTFSRYAMGWYRQAPGKERELVAVISSSGSRTYYADSVKGRFTISRDNAKNTVYLQMNSLKPEDTAVYYCAAKSRPRYYGTEPFDSWGQGTQVTVSS	high polyreactivity
QVQLEESGGGLVQAGGSLRLSCAASGSTFDVYAMGWYRQAPGKERELVAAISRSGGSTYYADSVKGRFTISRDTAKTTVYLQMNSLQPEDTAVYYCNARLARWGSYEYNYWGQGTQVTVSS	low polyreactivity
QVQLVESGGGLVQAGGSLRLSCAASGFTFPYYAMGWYRQAPGKERELVAAITSSGGSTYYADSVKGRFTISRDNAKNTVYLQMNSLKPEDTAVYYCAVDAYYYKWYDYWGQGTQVTVSS	high polyreactivity
QVQLVESGGGLVQAGGSLRLSFAACGSIFTVYTMGWYRQAPGKERELVAAINSRGGTTYYADSVKGRFTISRDTAKNTVYLQMNSLKPEDTAVYYCAADWGYKDFGYWGQGTQVTVSS	high polyreactivity
QVQLVESGGGLVQAGGSLRLSCAASGLTFGVNAMGWYRQAPGKERELVAAISGSGGRTNYADSVKGRFTISRDNAKNTVYLQMNSLKPEDTAVYYCNARFPDWALSEISHSTTYGYWGQGTQVTVSS	low polyreactivity
QVQLVESGGGLVQAGGSLRLSCAASGLNFIRYAMGWYRPAPGKERELVAAISWPGGNTYYADSVKGRFTISRDNAKNTVYLQMISQKPEDTAVYYCAAVGTWQHRSYGYWGQGTQVTVSS	high polyreactivity
QVQLVESGGGLVQAGGSLRLSCAASGSIFYYYAMGWYRQAPGKEREFVAAITKRADRTYYADSVKGRFTISRDNAKNTVYLQMNSLKPEDTAVYYCNADFVWRNGYLGFYRYDYWGQGTQVTVSS	low polyreactivity
QVQLVESGGGLVQAGGSLRIICAASGRIFYSNGMGWYRQAPGKERELVAGITRGGSTNYADSVKGRFTISRDNAKNTVYLQMISLKPEDTAVFYCAANQLHYRPSRFVYYGYRLYDYWGHGTQVTVSS	low polyreactivity
QVQLVESGGGLVQAGGSLRLSCAASGSIFYHNAMGWYRQAPGKERELVARISSRGGSTYYADSVKGRFTISRDNAKNTVYLQMNSLKPEDTAVYYCNNAYRYTSAYDYWGQGTQVTVSS	high polyreactivity
QVQLVESGGGLVQAGGSLRLSCAASGSTFVGNAMGWYRQAPGKERELVAAITGGGGSTYYADSVKGRFTISRDNAKNSVYLQMNSLKPEDTAVDYCARDRTDYYVWYVRYYYWGQGTQVTVSS	low polyreactivity
QVQLVESGGGLVQAGGSLRLSCAASGFTFDQYTMGWYRQAPGKERELVAAISSSGGSTYYADSVKGRFTISRDNAKNTVYLQMNSLKPEDTAVYYCAARFLLTQRVSHDYRGQGTQVTVSS	low polyreactivity
QFQLVESGGGLVQAGGSLRLSCAASGFTISWNTMGWYRQAPRKERELVATISGSGGRTYYADSVKGRFTISRDNAKNTVYFQMNSMKPEDTAVYYCAARYVLGGQGTSRRVRGGYWGQGTQLTVSS	high polyreactivity
QVQLVESGRGLVQAGGSLRLSCAASGSTFNINAMGWYRQAPGKERELVAAISWSGDITYYADSVKGRFTISRDNAKNTVYLQMNSLKPEDTAVYYCNTDDPGNYWYAEYDYWGQGTQVTVSS	low polyreactivity
QVQLVESGGGLVQAGGSLRLSCAASGRIFASYGMGWYRQAPGKETELVATINSSGGSTYYADSVKGRFTISRDNAKNTVYLQLKSLKPEDTAVYYSNARHGYYKYGYWGQGTQVTVSS	low polyreactivity
QVQLVESGGGLVQAGGSLRLSCAASGSIFGHYAMGWYRQATGKERELVATISRRGGSTYYADSVKVRFTISRDNAKNTVYLQMNSLKPEDTAVYYCAADSKGSLYGYWGQGTQVTVSS	high polyreactivity
